# Laboratory results published in the supplement of paper PMC6755084.
# B1: F1*; the commonest letter at each place (parent)
# chain: GAGACCGCAACTGAAAAGTTGTTATCACTTGTCGTAAGACACTTTGGATGGGTTGAAGTTCTGCACGTAGAAGCAAAAGGC
# Variants of: B1
# Experiment: fraction ligated after 30 min (ligated reads / total reads); higher = more ligase activity
# Details: with F1*sub RNA substrate (template-directed ligation), 42 °C
# Description: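 Chip-synthesised pool of F1* ligase ribozyme variants (all single and double substitutions, single, double and triple deletions in the catalytic core and GAA bulge, plus designed variants) was transcribed with T7 and reacted as a pool with excess substrate F1*sub for 30 min at 42 C in 50 mM EPPS pH 8.5, 25 mM MgCl2. Ligated and unligated bands were separated by PAGE, barcoded by RT and deep sequenced; fraction ligated = ligated reads / total reads per variant, relative activity = FL / FL of wild type (0.826). Sequences are the DNA template of the ribozyme.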
row,Variant,fraction ligated
1,T29A C33G,0.868
2,T45C,0.74
3,T23A T30C,0.793
4,C33T A39T,0.831
5,G38A A48G,0.796
6,T23C A56C,0.518
7,G34T A37T,0.843
8,C28G G47C,0.484
9,T30C A36C,0.801
10,T30C A36T,0.816
11,T29A T45G,0.475
12,C28T T43G,0.8
13,C28G T44C,0.778
14,C28G T44G,0.778
15,G31C T43A,0.807
16,T32C G34A,0.796
17,C40G G46A,0.825
18,C40G G46C,0.801
19,T43C G46C,0.791
20,A27G C33G,0.846
21,C28A C33A,0.818
22,G38A T45C,0.696
23,A27C,0.81
24,G31C T32A,0.803

row,Variant,fraction ligated
1,T25A A37C,0.744
2,C28A T45G,0.0334
3,G38T T43C,0.814
4,T25C G47T,0.208
5,G38C A39T,0.806
6,A24C A41G,0.608
7,C33G A39G,0.836
8,A39G G55C,0.801
9,G55T A56C A57G,0.00397
10,C33T A36C,0.843
11,A24T G31A,0.0391
12,G34C T43A,0.843
13,T25G T30G,0.776
14,A27G C40A,0.79
15,C33T T43C,0.822
16,A37G T44C,0.869
17,G38A T49C,0.245
18,T35A T43C,0.794
19,T35A T43G,0.807
20,G34C A48T,0.781
21,T35A T44A,0.838
22,A41C A48C,0.571
23,T35C C40T,0.862
24,T43A G46C,0.789

row,Variant,fraction ligated
1,T49A A57C,0.629
2,T25C C42A,0.776
3,T29G G38T,0.855
4,A41T A57G,0.807
5,C42T G50C,0.497
6,G46A A56G,0.487
7,T44G G47A,0.305
8,C26T C33A,0.798
9,T35A A57T,0.809
10,T32C T44C,0.756
11,C26G A27T,0.411
12,T35G T43C,0.807
13,T29G G34T,0.83
14,G34T G47C,0.342
15,G34T G38T,0.82
16,C26A T43A,0.809
17,C33T G47T,0.32
18,T29C G46C,0.775
19,G34A T35G,0.855
20,T32A G50T,0.454
21,A39G A48C,0.766
22,A24C T32A,0.0611
23,G34C C42T,0.849
24,T23G T49G,0.761

row,Variant,fraction ligated
1,T23G T49A,0.766
2,C33A G47T,0.219
3,T35A A48G,0.801
4,A24G G50A,0.449
5,T23C,0.846
6,A39T G46A,0.805
7,A24G T29G,0.811
8,A24G A37C,0.796
9,T30G G46A,0.791
10,T23A T29C,0.797
11,C40G A48T,0.715
12,T43C A56G,0.757
13,G55A A56T A57G,0.143
14,G55A A56T A57T,0.161
15,T43C T44G,0.836
16,T35A G38T,0.855
17,T32A G47A,0.597
18,A39G T49A,0.805
19,C26G T49C,0.0764
20,T45G G50T,0.0316
21,T35C T45C,0.783
22,T35C T45A,0.748
23,T35C A57T,0.825
24,T25A G55C,0.0483

row,Variant,fraction ligated
1,T25A G55T,0.0485
2,C28T C40A,0.824
3,C28T C40G,0.81
4,A48T G55C,0.0233
5,T44C A57G,0.802
6,T23A T35G,0.817
7,A27C A48T,0.78
8,C26A A41G,0.761
9,T25A T45C,0.0183
10,A36C A56T,0.804
11,C26A G34T,0.808
12,T45C G50C,0.0165
13,A24G T44C,0.763
14,A24C G34C,0.185
15,C33A G50A,0.343
16,A39C T43C,0.815
17,G31T A37G,0.792
18,C28G T30C,0.794
19,C28G T30G,0.788
20,A39T C40T,0.809
21,C42A G55C,0.746
22,G31A G47A,0.54
23,A24T C42G,0.769
24,A57T,0.844

row,Variant,fraction ligated
1,G38C C42A,0.857
2,A36C T45A,0.771
3,C26T A57T,0.852
4,A36C A48C,0.778
5,T25G A57T,0.563
6,T25G A57C,0.556
7,A39T A48C,0.633
8,G55A A56G A57C,0.131
9,C33A G55C,0.77
10,T23C C26T,0.779
11,G31C G38C,0.778
12,C33A A36C,0.844
13,G31A A57G,0.851
14,T30G T35A,0.845
15,T23A G31A,0.816
16,T29C A41T,0.788
17,C28A G47C,0.302
18,A39T T45G,0.1
19,C26G T29G,0.778
20,T25A T30C,0.218
21,C26G A41T,0.459
22,G31A T45C,0.0954
23,A24T T25G,0.722
24,A24T T25C,0.779

row,Variant,fraction ligated
1,A24T T25A,0.735
2,A27T G55T,0.789
3,T25A C26A,0.0968
4,T44G T49A,0.584
5,T44G T49G,0.714
6,T30G A56G,0.757
7,T25G A36C,0.77
8,C40A T43A,0.856
9,T30C T49G,0.485
10,T29C G47A,0.793
11,C26A C40G,0.793
12,G50T G55A,0.455
13,C33A T35G,0.866
14,C26T A41G,0.813
15,T25G A39G,0.759
16,T25G A39C,0.373
17,T23A G55A,0.801
18,A27G T32C,0.77
19,T23C G38C,0.802
20,A37G T45A,0.804
21,T29G A39G,0.819
22,A36T G47A,0.8
23,C42A T43C,0.825
